{"source": "the RNAGym collection of RNA variant scans (doi:10.1073/pnas.2313332121)", "parents": {"B1": {"name": "TPR t1 (parent)", "chain": "GACCAAUCUGCCCUCAGAGCUCGAGAACAUCUUCGGAUGCAGAGGAGGCAGGCUUCGGUGGCGCGAUAGCGCCAACGUCCUCAACCUCCAAUGCAUCCCACCACAUGAUGAUGCCUGAAGAGCCUUGGUUUUUUG"}}}
{"variants_of": "B1", "assay": "polymerase ribozyme fitness, log enrichment relative to wild type (log ratio); higher = more active; in vitro selection for triplet polymerase activity", "how_it_was_run": "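Genotype fitness is the logarithm of its enrichment divided by wild-type enrichment, using inverse-variance-weighted averages of replicates. That logarithm is base 2. Enrichment was measured by Illumina sequencing of input and output libraries from one triplicate in vitro selection round, with frozen incubation at −7 °C, on PCR-built, transcribed mutant libraries of each subunit of a heterodimeric triplet polymerase ribozyme, retaining genotypes with ≥10 input reads and ≥1 read per output.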"}
{"variant": "C49U C62A", "polymerase ribozyme fitness (log ratio)": -2.25}
{"variant": "C49U C62A C115A G122A", "polymerase ribozyme fitness (log ratio)": -2.37}
{"variant": "C49U C62A U96C", "polymerase ribozyme fitness (log ratio)": -1.91}
{"variant": "C49U C62G G71A", "polymerase ribozyme fitness (log ratio)": -1.5}
{"variant": "C49U C62U C114G G117C U125C U129C", "polymerase ribozyme fitness (log ratio)": -7.74}
{"variant": "C49U C62U G77A U78G C80G A90C G107U C115G G120C", "polymerase ribozyme fitness (log ratio)": -7.16}
{"variant": "C49U C64U", "polymerase ribozyme fitness (log ratio)": -0.897}
{"variant": "C49U C70U", "polymerase ribozyme fitness (log ratio)": -1.33}
{"variant": "C49U C72G C89U", "polymerase ribozyme fitness (log ratio)": -1.07}
{"variant": "C49U C72U C94G", "polymerase ribozyme fitness (log ratio)": -1.72}
{"variant": "C49U C73A C114U", "polymerase ribozyme fitness (log ratio)": -2.58}
{"variant": "C49U C73G", "polymerase ribozyme fitness (log ratio)": -0.732}
{"variant": "C49U C80G", "polymerase ribozyme fitness (log ratio)": -5.44}
{"variant": "C49U C82A U87C U96A", "polymerase ribozyme fitness (log ratio)": -1.66}
{"variant": "C49U C85G U96G", "polymerase ribozyme fitness (log ratio)": -2.99}
{"variant": "C49U C89U", "polymerase ribozyme fitness (log ratio)": 0.0169}
{"variant": "C49U C94A", "polymerase ribozyme fitness (log ratio)": -2.8}
{"variant": "C49U C98U", "polymerase ribozyme fitness (log ratio)": -2.16}
{"variant": "C49U C124G", "polymerase ribozyme fitness (log ratio)": 0.761}
{"variant": "C49U G51U", "polymerase ribozyme fitness (log ratio)": -5.95}
{"variant": "C49U G51U G71A C86U", "polymerase ribozyme fitness (log ratio)": -7.37}
{"variant": "C49U G52A C73G A121U", "polymerase ribozyme fitness (log ratio)": -1.14}
{"variant": "C49U G57U C79A", "polymerase ribozyme fitness (log ratio)": -3.24}
{"variant": "C49U G57U G61A G120A", "polymerase ribozyme fitness (log ratio)": -0.511}
{"variant": "C49U G58C", "polymerase ribozyme fitness (log ratio)": -0.728}
{"variant": "C49U G60A A83G U133A", "polymerase ribozyme fitness (log ratio)": -0.755}
{"variant": "C49U G60A C82U U106A G120C G135A", "polymerase ribozyme fitness (log ratio)": 0.366}
{"variant": "C49U G60C", "polymerase ribozyme fitness (log ratio)": -0.958}
{"variant": "C49U G60U", "polymerase ribozyme fitness (log ratio)": -0.405}
{"variant": "C49U G61C G71A A95G G113U", "polymerase ribozyme fitness (log ratio)": -7.48}
{"variant": "C49U G61U", "polymerase ribozyme fitness (log ratio)": -0.402}
{"variant": "C49U G61U C70G U81G C115G C123U U130A", "polymerase ribozyme fitness (log ratio)": -5.96}
{"variant": "C49U G61U C86A", "polymerase ribozyme fitness (log ratio)": -1.79}
{"variant": "C49U G61U U81A C115G", "polymerase ribozyme fitness (log ratio)": -2.05}
{"variant": "C49U G63A", "polymerase ribozyme fitness (log ratio)": -1.67}
{"variant": "C49U G63A U67C C85U G93U G110C C124A", "polymerase ribozyme fitness (log ratio)": -8.14}
{"variant": "C49U G63C C124U", "polymerase ribozyme fitness (log ratio)": 0.36}
{"variant": "C49U G65C C104G C123A", "polymerase ribozyme fitness (log ratio)": -7.83}
{"variant": "C49U G69U C80A", "polymerase ribozyme fitness (log ratio)": -3.24}
{"variant": "C49U G69U U78C U81A C114G G117U G127U", "polymerase ribozyme fitness (log ratio)": -5.33}
{"variant": "C49U G71A", "polymerase ribozyme fitness (log ratio)": -1.46}
{"variant": "C49U G71C", "polymerase ribozyme fitness (log ratio)": -2.01}
{"variant": "C49U G71C C94G", "polymerase ribozyme fitness (log ratio)": -2.87}
{"variant": "C49U G71C G117U G120A C124A", "polymerase ribozyme fitness (log ratio)": -2.34}
{"variant": "C49U G71U", "polymerase ribozyme fitness (log ratio)": -0.77}
{"variant": "C49U G110A", "polymerase ribozyme fitness (log ratio)": -1.45}
{"variant": "C49U G120C", "polymerase ribozyme fitness (log ratio)": 0.88}
{"variant": "C49U G120C C123G", "polymerase ribozyme fitness (log ratio)": -0.212}
{"variant": "C49U G120U", "polymerase ribozyme fitness (log ratio)": -0.184}
{"variant": "C49U G128U", "polymerase ribozyme fitness (log ratio)": -2.9}
{"variant": "C49U U54A U92C G120C G128A", "polymerase ribozyme fitness (log ratio)": -4.05}
{"variant": "C49U U55G", "polymerase ribozyme fitness (log ratio)": -0.735}
{"variant": "C49U U59G C72U", "polymerase ribozyme fitness (log ratio)": -1.12}
{"variant": "C49U U78C", "polymerase ribozyme fitness (log ratio)": -1}
{"variant": "C49U U96C C124A", "polymerase ribozyme fitness (log ratio)": 1.03}
{"variant": "C49U U106A C114U", "polymerase ribozyme fitness (log ratio)": -4.43}
{"variant": "C49U U106A U116G G128A", "polymerase ribozyme fitness (log ratio)": -5.82}
{"variant": "A50C A75G A95C", "polymerase ribozyme fitness (log ratio)": -0.114}
{"variant": "A50C A84C", "polymerase ribozyme fitness (log ratio)": -1.1}
{"variant": "A50C A91G C124A U133A", "polymerase ribozyme fitness (log ratio)": 1.25}
{"variant": "A50C A100C C104U G120C G127U", "polymerase ribozyme fitness (log ratio)": 0.167}
{"variant": "A50C C53U C72U G127A U133A", "polymerase ribozyme fitness (log ratio)": -3.63}
{"variant": "A50C C56A G77C C115A", "polymerase ribozyme fitness (log ratio)": -1.07}
{"variant": "A50C C56U", "polymerase ribozyme fitness (log ratio)": -0.0268}
{"variant": "A50C C62A U106A A111G C114U C123A", "polymerase ribozyme fitness (log ratio)": -5.42}
{"variant": "A50C C70A", "polymerase ribozyme fitness (log ratio)": -2.58}
{"variant": "A50C C70U A105U", "polymerase ribozyme fitness (log ratio)": -3.71}
{"variant": "A50C C72U G77U C99A U116A G120C C123U", "polymerase ribozyme fitness (log ratio)": -8.09}
{"variant": "A50C C88A U130C U133A", "polymerase ribozyme fitness (log ratio)": -0.495}
{"variant": "A50C C89U", "polymerase ribozyme fitness (log ratio)": -1.06}
{"variant": "A50C C123A", "polymerase ribozyme fitness (log ratio)": -0.166}
{"variant": "A50C C124A", "polymerase ribozyme fitness (log ratio)": 0.557}
{"variant": "A50C G52C C56G G63A G77U", "polymerase ribozyme fitness (log ratio)": -6.51}
{"variant": "A50C G57U G69A G120A G127A", "polymerase ribozyme fitness (log ratio)": -3.95}
{"variant": "A50C G57U G113U", "polymerase ribozyme fitness (log ratio)": -4.25}
{"variant": "A50C G58C C98U C123G", "polymerase ribozyme fitness (log ratio)": 0.72}
{"variant": "A50C G61U", "polymerase ribozyme fitness (log ratio)": -0.0844}
{"variant": "A50C G69A U78C C97U", "polymerase ribozyme fitness (log ratio)": -4.07}
{"variant": "A50C G117U", "polymerase ribozyme fitness (log ratio)": -2.95}
{"variant": "A50C U92G U112A G135A", "polymerase ribozyme fitness (log ratio)": -3.14}
{"variant": "A50C U116A U131A", "polymerase ribozyme fitness (log ratio)": -3.32}
{"variant": "A50C U116C", "polymerase ribozyme fitness (log ratio)": -1.32}
{"variant": "A50C U125A", "polymerase ribozyme fitness (log ratio)": -0.974}
{"variant": "A50G A66G C73U C86A C115G", "polymerase ribozyme fitness (log ratio)": -4.26}
